Reference: PMC11685456, “Structural insights into GrpEL1-mediated nucleotide and substrate release of human mitochondrial Hsp70” (Nature Communications, 2024)

B1: human GrpEL1 wild type, without its mitochondrial targeting sequence (natural protein, UniProt Q9HAV7 28-217, looked up)
chain: CTATKQKNSGQNLEEDMGQSEQKADPPATEKTLLEEKVKLEEQLKETVEKYKRALADTENLRQRSQKLVEEAKLYGIQAFCKDLLEVADVLEKATQCVPKEEIKDDNPHLKNLYEGLVMTEVQIQKVFTKHGLLKLNPVGAKFDPYEHEALFHTPVEGKEPGTVALVSKVGYKLHGRTLRPALVGVVKEA
notes: GrpEL1, human mitochondrial nucleotide exchange factor; printed mass 25.5 kDa a protomer; Homodimer; no tag removal is described; also called GrpEL1WT; HsGrpEL1; source: E. coli LOBSTR, purified (Ni Sepharose, Strep-Tactin, Superdex 200)
B2: human GrpEL1 Y173A, without its mitochondrial targeting sequence (natural protein, UniProt Q9HAV7 28-217, looked up)
chain: CTATKQKNSGQNLEEDMGQSEQKADPPATEKTLLEEKVKLEEQLKETVEKYKRALADTENLRQRSQKLVEEAKLYGIQAFCKDLLEVADVLEKATQCVPKEEIKDDNPHLKNLYEGLVMTEVQIQKVFTKHGLLKLNPVGAKFDPAEHEALFHTPVEGKEPGTVALVSKVGYKLHGRTLRPALVGVVKEA
notes: GrpEL1, human; Two protomers (GrpEL1-A and GrpEL1-B) were modelled in the Y173A structures; also called HsGrpEL1_(Y173A); source: E. coli LOBSTR, purified as GrpEL1WT (Ni Sepharose, Strep-Tactin, Superdex 200)

What was measured:
[1] = molecular target: T1, human mortalin R126W (mitochondrial Hsp70, HSPA9), without its mitochondrial targeting sequence (human, UniProt P38646 47-679, R126W); test: SEC-MALS; the mortalin_(R126W)-GrpEL1 complex; 152.5 kDa species; details: both partners purified
T1 construct: mortalin (mitochondrial Hsp70, HSPA9), human; printed mass 70.2 kDa; R126W is associated with EVEN-PLUS syndrome; residues 46-639 were modelled in the cryo-EM map; No tag removal is described; also called Hsmortalin_(R126W); mtHsp70; source: E. coli LOBSTR, co-expressed with HsHep1, purified (HisTrap, HiTrap Q, Superdex 200)
T1 sequence (P38646 47-679 R126W): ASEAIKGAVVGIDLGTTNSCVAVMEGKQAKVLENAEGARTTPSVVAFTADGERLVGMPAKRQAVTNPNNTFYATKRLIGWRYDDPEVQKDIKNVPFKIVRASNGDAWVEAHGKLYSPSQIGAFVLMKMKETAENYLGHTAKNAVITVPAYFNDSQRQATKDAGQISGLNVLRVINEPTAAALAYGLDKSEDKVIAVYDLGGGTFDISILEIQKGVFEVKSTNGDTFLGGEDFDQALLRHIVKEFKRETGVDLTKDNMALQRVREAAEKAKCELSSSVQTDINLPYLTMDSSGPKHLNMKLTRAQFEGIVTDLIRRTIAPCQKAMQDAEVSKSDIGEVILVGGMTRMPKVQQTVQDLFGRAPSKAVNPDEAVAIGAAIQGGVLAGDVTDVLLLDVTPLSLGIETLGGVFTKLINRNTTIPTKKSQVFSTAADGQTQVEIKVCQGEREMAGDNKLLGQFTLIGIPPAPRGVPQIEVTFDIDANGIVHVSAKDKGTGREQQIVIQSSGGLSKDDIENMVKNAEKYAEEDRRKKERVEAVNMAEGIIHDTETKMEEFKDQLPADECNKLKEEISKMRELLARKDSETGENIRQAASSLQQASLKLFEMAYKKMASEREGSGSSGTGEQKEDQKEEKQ

[2] = molecular target: the molecule itself; test: cryo-EM structure; high molecular weight SEC peak concentrated and vitrified on UltraAuFoil grids; Titan Krios G4, 300 keV; nucleotide-free complexes
[3] = molecular target: T1, human mortalin R126W (mitochondrial …); test: SEC; purified mortalin (20 uM), GrpEL1 (40 uM) and Pam16/Pam18 chimera (12 uM) incubated 1 h at room temperature, then Superdex 200 Increase 10/300 GL in 20 mM Tris pH 8, 150 mM KCl, 0.5 mM TCEP; fractions seen by SDS-PAGE; details: both partners purified

| Binder | stoichiometry N [1] [GrpEL1 per mortalin] | stoichiometry N [2] | binding result [3] | binding result [2] |
| --- | --- | --- | --- | --- |
| B1 | 2 | 2 | – | – |
| B2 | – | – | binds | binds |
